From patent publication US20260207717A1, “METHODS FOR TREATING INFANTILE-ONSET POMPE DISEASE IN PEDIATRIC PATIENTS” (Amicus Therapeutics, Inc., priority 2022, published 2026)

Legend:
Juvenile toxicology = assay type: in vivo
Experimental: (§1) The cipaglucosidase alfa dose of 30 mg/kg being evaluated in this protocol was determined from population PK modeling and simulation analyses that included pooled data from 96 adults and 11 pediatric subjects dosed at 20, 25, and 30 mg/kg, including 3 pediatric IOPD patients from the Expanded Access Program (EAP) (ages 1 to 3 years) at the 30 mg/kg dose level. The 30 mg/kg dose level in combination with additional effect from miglustat provided exposures that are well within the safety margin and multiples of exposure established by the juvenile toxicology no-observed-adverse effect-level (NOAEL) of 150 mg/kg.

CIMPR = CIMPR (Homo sapiens, UniProt P11717); experiment: CIMPR affinity chromatography (bound vs unbound rhGAA by GAA activity); assay type: binding
Excerpt: Multiple batches of the rhGAA according to the disclosure were produced in shake flasks and in perfusion bioreactors using CHO cell line GA-ATB200, the product of which is referred to as “ATB200.” Weak anion exchange (“WAX”) liquid chromatography was used to fractionate ATB200 rhGAA according to terminal phosphate and sialic acid. Elution profiles were generated by eluting the ERT with increasing amount of salt. The profiles were monitored by UV (A280 nm).
To evaluate the ability of the conventional rhGAAs in MYOZYME® and LUMIZYME® to interact with the CIMPR, the two conventional rhGAA preparations were injected onto a CIMPR affinity column (which binds rhGAA having M6P groups) and the flow through collected. The bound material was eluted with a free M6 gradient. Fractions were collected in 96-well plate and GAA activity assayed by 4MU-α-glucosidase substrate. The relative amounts of unbound (flow through) and bound (M6P eluted) rhGAA were determined based on GAA activity and reported as the fraction of total enzyme. […] Indeed, only 27% of the rhGAA in MYOZYME® and 22% of the rhGAA in LUMIZYME® contained M6P that can be productive to target it to the CIMPR on muscle cells.

clinical = conditions: human, in vivo
Experimental: At 10Y7M of age, the blood of the patient was collected to gather pharmacokinetic (PK) data for their treatment that included weekly administration of 20 mg/kg ATB200 and 130 mg AT2221.
Blood sampling of the patient was conducted to gather pharmacokinetic (PK) data for their treatment that included administration of 25 mg/kg ATB200 and 195 mg AT2221 biweekly.
At 12Y5M of age, the patient has been receiving ATB200 (20 mg/kg) and AT2221 (195 mg) biweekly for 1 year. […] At this time, the PK levels of both ATB200 and AT2221 were taken from the patient.

[1] = tested on: normal and Pompe fibroblast cell lines; experiment: Cellular uptake of rhGAA (internalized GAA by 4MU-α-Glucoside hydrolysis); assay type: cell-based
Experimental: The relative cellular uptake of ATB200 and LUMIZYME® rhGAA were compared using normal and Pompe fibroblast cell lines. Comparisons involved 5-100 nM of ATB200 according to the disclosure with 10-500 nM conventional rhGAA product LUMIZYME®. After 16-hr incubation, external rhGAA was inactivated with TRIS base and cells were washed 3-times with PBS prior to harvest. Internalized GAA measured by 4MU-α-Glucoside hydrolysis and was graphed relative to total cellular protein and the results appear in FIGS. 11A-11C.
ATB200 was also shown to be efficiently internalized into cells. […] ATB200 saturates cellular receptors at about 20 nM, while about 250 nM of LUMIZYME® is needed to saturate cellular receptors.

pediatric IOPD patients = experiment: Tolerability and accumulation in 3 pediatric IOPD patients of the EAP; assay type: in vivo, human; conditions: 30 mg/kg cipaglucosidase alfa in combination with miglustat, 3 pediatric IOPD patients in the EAP
Experimental: as §1
This frequency of dosing is based on the systemic clearance of the cipaglucosidase alfa and miglustat, and the acuity/severity of disease in IOPD, as well as observations in 3 IOPD patients enrolled in the EAP (ERT-experienced patients in clinical decline).
A weekly frequency of 30 mg/kg cipaglucosidase alfa and miglustat administration will be evaluated in this study. A weekly 30 mg/kg cipaglucosidase alfa and miglustat dose has been administered in pediatric subjects with IOPD from the EAP. […] The rationale for weekly dosing in both cohorts is based on evidence supporting improved survival for IOPD patients receiving weekly dosing of standard of care ERT compared to every other week dosing (Ditters, Huidekper et al, 2021). […]

CIMPR, sequence (P11717 41-2491, species assumed): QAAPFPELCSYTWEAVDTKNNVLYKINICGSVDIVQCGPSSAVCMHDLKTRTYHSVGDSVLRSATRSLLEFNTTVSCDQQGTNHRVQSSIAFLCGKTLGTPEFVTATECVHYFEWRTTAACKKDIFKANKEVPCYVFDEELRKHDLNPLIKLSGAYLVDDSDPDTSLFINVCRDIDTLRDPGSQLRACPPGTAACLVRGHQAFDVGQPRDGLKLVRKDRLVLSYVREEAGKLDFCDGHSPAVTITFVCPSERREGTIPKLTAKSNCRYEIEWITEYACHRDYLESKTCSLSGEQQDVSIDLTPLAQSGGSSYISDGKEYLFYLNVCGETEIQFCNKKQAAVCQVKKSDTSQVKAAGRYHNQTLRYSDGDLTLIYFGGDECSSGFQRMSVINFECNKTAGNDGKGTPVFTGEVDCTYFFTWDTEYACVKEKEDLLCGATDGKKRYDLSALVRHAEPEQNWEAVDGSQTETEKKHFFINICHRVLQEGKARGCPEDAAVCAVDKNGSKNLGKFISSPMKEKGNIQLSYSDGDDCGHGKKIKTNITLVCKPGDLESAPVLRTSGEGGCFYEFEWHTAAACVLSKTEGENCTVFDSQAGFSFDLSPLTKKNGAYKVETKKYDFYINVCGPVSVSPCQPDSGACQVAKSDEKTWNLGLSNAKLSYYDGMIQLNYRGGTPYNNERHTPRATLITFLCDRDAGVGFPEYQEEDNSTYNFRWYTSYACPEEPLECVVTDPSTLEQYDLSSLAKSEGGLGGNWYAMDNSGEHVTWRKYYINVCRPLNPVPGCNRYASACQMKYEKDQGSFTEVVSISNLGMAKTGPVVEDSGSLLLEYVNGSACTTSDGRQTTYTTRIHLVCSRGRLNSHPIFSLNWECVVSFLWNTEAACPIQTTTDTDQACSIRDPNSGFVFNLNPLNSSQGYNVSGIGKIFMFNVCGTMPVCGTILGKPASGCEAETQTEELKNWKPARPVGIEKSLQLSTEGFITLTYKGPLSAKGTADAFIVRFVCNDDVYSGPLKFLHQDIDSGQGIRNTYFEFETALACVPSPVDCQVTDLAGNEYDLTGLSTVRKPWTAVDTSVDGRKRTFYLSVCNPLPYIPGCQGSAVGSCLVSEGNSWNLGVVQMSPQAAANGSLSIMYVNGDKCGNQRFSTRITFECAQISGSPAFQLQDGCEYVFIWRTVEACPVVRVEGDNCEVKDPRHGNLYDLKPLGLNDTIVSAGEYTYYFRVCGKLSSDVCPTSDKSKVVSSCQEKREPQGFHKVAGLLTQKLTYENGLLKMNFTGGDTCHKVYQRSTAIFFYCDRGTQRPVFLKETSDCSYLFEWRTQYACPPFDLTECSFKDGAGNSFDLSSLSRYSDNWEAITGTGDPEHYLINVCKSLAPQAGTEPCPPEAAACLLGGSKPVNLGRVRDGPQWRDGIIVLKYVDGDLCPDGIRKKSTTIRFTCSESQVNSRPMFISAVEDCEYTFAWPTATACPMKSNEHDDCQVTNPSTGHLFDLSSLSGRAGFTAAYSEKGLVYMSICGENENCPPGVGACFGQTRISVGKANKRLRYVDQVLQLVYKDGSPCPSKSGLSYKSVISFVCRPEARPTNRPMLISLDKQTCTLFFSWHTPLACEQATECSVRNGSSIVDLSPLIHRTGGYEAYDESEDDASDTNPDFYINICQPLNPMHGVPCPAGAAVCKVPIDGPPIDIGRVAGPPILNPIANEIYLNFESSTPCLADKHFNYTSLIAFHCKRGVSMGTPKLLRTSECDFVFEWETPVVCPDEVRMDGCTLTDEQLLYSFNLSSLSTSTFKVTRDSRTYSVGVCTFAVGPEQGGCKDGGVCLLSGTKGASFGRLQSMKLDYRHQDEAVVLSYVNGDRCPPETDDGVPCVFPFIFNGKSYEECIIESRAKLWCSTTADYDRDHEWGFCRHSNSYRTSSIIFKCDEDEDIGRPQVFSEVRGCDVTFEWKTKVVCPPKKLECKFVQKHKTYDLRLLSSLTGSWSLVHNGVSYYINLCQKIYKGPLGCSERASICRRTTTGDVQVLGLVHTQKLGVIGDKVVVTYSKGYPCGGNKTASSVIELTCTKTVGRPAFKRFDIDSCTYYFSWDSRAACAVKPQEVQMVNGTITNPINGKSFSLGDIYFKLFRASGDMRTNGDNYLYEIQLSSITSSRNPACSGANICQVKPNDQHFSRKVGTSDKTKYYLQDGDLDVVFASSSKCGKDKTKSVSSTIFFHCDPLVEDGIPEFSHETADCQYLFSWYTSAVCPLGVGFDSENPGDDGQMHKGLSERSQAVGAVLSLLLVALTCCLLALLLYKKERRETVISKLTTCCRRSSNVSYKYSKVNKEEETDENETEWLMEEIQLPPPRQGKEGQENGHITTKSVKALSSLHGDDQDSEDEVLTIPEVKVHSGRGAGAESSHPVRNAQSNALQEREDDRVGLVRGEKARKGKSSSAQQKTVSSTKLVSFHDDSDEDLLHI

Substance: ATB200: recombinant human acid α-glucosidase with a high content of N-glycans bearing mono-M6P and bis-M6P, produced from a GA-ATB200 cell line
- no-observed-adverse effect-level (NOAEL) (Juvenile toxicology): 150 mg/kg
- rhGAA that binds to the CIMPR (contains M6P) (CIMPR; fraction of total enzyme by GAA activity): more than 70%
- CIMPR receptor binding (CIMPR; purified ATB200 rhGAA from different production batches (FIG. 5)): ≥ 70%
- AUC relative to adult percentiles (clinical): within the adult 10th-90th percentile
- Cmax relative to adult percentiles (clinical): within the adult 10th-90th percentile
- concentration that saturates cellular receptors ([1]; 16-hr incubation): about 20 nM
- internalization into normal and Pompe fibroblast cells ([1]; compared with LUMIZYME): internalized to a greater degree
- uptake efficiency constant (Kuptake) ([1]; extrapolated, FIG. 11C): 2-3 nm
- tolerability (pediatric IOPD patients): generally well-tolerated
